Data taken from patent US20260176354A1, “ANTIBODY BINDING TO CD22, AND BISPECIFIC ANTIBODY, CHIMERIC ANTIGEN RECEPTOR AND ANTIBODY-DRUG CONJUGATE COMPRISING SAME, AND USE THEREOF” (THE ASAN FOUNDATION, priority 2022, published 2026).
Positions count from the first letter of the chain named.

T1: human CD22-His protein (Sino Biological Inc.) (human, UniProt P20273 20-687)
T1 construct: Bought protein coated on the ELISA plate (100 ng/well); not shown: His tag
T1 sequence (looked up): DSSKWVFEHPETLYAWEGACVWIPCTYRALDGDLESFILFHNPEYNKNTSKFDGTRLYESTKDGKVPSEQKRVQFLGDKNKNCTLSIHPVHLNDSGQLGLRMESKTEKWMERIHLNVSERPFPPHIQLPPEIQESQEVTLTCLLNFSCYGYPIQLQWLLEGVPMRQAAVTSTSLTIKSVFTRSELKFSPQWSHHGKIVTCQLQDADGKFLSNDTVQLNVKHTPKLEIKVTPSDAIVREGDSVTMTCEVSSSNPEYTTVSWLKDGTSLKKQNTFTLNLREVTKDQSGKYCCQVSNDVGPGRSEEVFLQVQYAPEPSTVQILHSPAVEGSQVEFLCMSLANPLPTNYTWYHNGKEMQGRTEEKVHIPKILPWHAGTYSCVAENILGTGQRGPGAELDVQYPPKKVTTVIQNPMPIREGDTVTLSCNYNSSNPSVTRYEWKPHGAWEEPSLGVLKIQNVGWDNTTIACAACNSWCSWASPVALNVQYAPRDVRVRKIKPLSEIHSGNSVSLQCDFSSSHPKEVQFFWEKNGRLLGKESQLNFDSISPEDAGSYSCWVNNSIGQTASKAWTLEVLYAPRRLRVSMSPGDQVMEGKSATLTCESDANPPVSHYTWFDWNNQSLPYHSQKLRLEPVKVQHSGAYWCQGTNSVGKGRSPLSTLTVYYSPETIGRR

T2: human CD22-His protein (Homo sapiens, UniProt P20273)
T2 construct: His; purchased Sino Biological Inc., Beijing, China
T2 sequence (P20273 20-847): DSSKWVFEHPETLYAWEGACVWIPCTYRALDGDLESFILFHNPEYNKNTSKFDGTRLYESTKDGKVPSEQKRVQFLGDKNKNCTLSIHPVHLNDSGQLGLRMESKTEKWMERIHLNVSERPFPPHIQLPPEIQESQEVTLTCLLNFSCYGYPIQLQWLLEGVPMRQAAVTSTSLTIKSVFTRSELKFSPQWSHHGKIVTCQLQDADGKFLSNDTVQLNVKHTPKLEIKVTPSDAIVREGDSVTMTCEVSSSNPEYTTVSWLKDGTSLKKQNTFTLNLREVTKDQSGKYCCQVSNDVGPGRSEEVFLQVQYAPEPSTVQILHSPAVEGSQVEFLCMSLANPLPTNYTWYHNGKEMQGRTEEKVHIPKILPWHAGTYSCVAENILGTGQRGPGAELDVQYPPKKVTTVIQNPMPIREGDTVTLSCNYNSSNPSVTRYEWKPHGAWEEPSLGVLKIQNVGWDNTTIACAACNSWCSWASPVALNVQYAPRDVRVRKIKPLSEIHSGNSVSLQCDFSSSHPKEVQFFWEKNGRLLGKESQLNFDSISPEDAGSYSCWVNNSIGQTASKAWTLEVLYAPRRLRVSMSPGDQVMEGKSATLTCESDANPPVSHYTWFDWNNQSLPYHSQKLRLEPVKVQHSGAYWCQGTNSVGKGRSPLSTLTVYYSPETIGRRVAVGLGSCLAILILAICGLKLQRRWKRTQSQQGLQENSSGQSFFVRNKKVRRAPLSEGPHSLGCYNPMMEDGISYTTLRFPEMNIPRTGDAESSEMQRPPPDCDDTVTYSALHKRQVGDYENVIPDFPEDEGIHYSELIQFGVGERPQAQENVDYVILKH

B1: recombinant anti-CD22 scFv-Cκ-HA fusion protein CI4-47 (scFv)
scFv: LTQPSSVSANPGETVKITCSGGSGGYGWYQQKSPGSAPVSLIYDNDQRPSDIPSRFSGSKSGSTGTLTITGVQADDEAVYYCGSYDSSYVGIFGAGTTLTVLGGGGSGGGGSGGGGSAVTLDESGGGLQTPGGALSLVCKASGFTFSNYCMQWVRQAPGKGLEWVAGIGSSGTGTYYGSAVRGRATISRDNGQSTVRLQLNNLRAEDTGTYYCARDYGSDSGCGWGIYAGEIDAWGHGTEVIVSSGGGGSGGGGSGGGGSRTVAAPSVFIFPPSDEQLKSGTASVVCLLNNFYPREAKVQWKVDNALQSGNSQESVTEQDSKDSTYSLSSTLTLSKADYEKHKVYACEVTHQGLSSPVTKSFNRGESGGAYPYDVPDYAS
notes: Chicken-derived scFv fused to a human constant kappa region and an HA tag; expressed in HEK293F cells, purified on KappaSelect; also called CI4-47 scFv-Cκ-HA
B2: CI4-47: recombinant anti-CD22 scFv-Cκ-HA fusion protein (protein)
scFv: B1 scFv
B3: anti-CD22 IgG protein 2-3-14 (antibody, V domains shown)
VH: AVTLDESGGGLQTPGGGLSLVCKASGFSFSDYGMGWVRQAPGKGLEFVASISNTGSYTDYGAAVKGRATISRDNGQSTLRLQLNNLRAEDTGTYFCAKSAYGGSYGSSSIDAWGHGTEVIVSS
VL: LTQPSSVSANPGETVKITCSGSNNTYGWYQQKAPGSAPVTVIYDNTNRPSDIPSRFSGSKSGSTNTLTITGVQAEDEAVYFCGSRDSTYVGIFGAGTTLTVLR
notes: also called Feb; 3, 2014
B4: anti-CD22 IgG protein 2-3-14_H2-40 (antibody, V domains shown)
VH: B3 VH with S50F, I51L, S52G, N53S, T54S, G55S
VL: B3 VL
B5: anti-CD22 IgG protein 2-3-14_H1-24 (antibody, V domains shown)
VH: B3 VH with S28A, S30G, D31R, Y32S, G33S
VL: B3 VL
B6: recombinant anti-CD22 scFv-Cκ-HA fusion protein 2-3-14 (scFv)
scFv: LTQPSSVSANPGETVKITCSGSNNTYGWYQQKAPGSAPVTVIYDNTNRPSDIPSRFSGSKSGSTNTLTITGVQAEDEAVYFCGSRDSTYVGIFGAGTTLTVLGGGGSGGGGSGGGGSAVTLDESGGGLQTPGGGLSLVCKASGFSFSDYGMGWVRQAPGKGLEFVASISNTGSYTDYGAAVKGRATISRDNGQSTLRLQLNNLRAEDTGTYFCAKSAYGGSYGSSSIDAWGHGTEVIVSSGGGGSGGGGSGGGGSRTVAAPSVFIFPPSDEQLKSGTASVVCLLNNFYPREAKVQWKVDNALQSGNSQESVTEQDSKDSTYSLSSTLTLSKADYEKHKVYACEVTHQGLSSPVTKSFNRGESGGAYPYDVPDYAS
notes: The text prints the clone name 2-3-14 as 'Feb; 3, 2014' in several paragraphs (date conversion artefact); also called Feb; 3, 2014; 2-3-14 scFv-Cκ-HA
B7: anti-CD22 IgG protein CI4-47_8-1_H1-2-37 (antibody, V domains shown)
VH: EVQLLESGGGLVQPGGSLRLSCAASGFTFSRHGMYWVRQAPGKGLEWVSGIGSSGTGTYYGSAVRGRFTISRDNSKNTLYLQMNSLRAEDTAVYYCARDYGSDSGVGWGIYAGEIDAWGQGTLVTVSS
VL: LTQPPSVSVSPGQTARITCSGGSGGYGWYQQKPGSAPVSVIYDNDQRPSGIPERFSGSSSGTTVTLTISGVQAEDEADYYCGSYDSSYVGIFGGGTKLTVLR
B8: anti-CD22 IgG protein CI4-47_8-1_H1-2-1 (antibody, V domains shown)
VH: B7 VH with R31K, M34H, V106I
VL: B7 VL
B9: anti-CD22 IgG protein CI4-47_8-1 (antibody, V domains shown)
VH: B7 VH with R31N, H32Y, G33C, Y35S, V106C
VL: B7 VL

Legend:
[1] = molecular target: T1, human CD22-His protein (Sino Biological …); assay: ELISA, human CD22-His coated, anti-human Cκ-HRP detection
Procedure: (§1) Microtiter plates (Corning Inc., MA, USA) were coated overnight at 4° C. with human CD22-His protein (100 ng/well, Sino Biological Inc., Beijing, China). The wells were blocked for 1 hour at 37° C. with 150 μl of 3% BSA (w/v) in PBS, and serial dilutions of the anti-CD22 scFv-Cκ-HA fusion protein, prepared in 3% BSA in PBS, were added to each well. After incubation for 1.5 hours at 37° C., the plates were washed three times with PBST (PBS containing 0.05% Tween-20), followed by incubation for 1 hour at 37° C. with an HRP-conjugated anti-human CK antibody (Millipore, CA, USA). The plates were washed three times with PBST, and the amount of bound antibody was determined by adding 2,2′-azino-bis(3-ethylbenzothiazoline-6-sulfonic acid) (Thermo Fisher Scientific Inc., MA, USA). The resulting OD₄₀₅ was measured using a microplate spectrophotometer.

[2] = molecular target: T2, human CD22-His protein; assay: ELISA analysis using anti-CD22 scFv-Cκ-HA fusion protein; type: binding; settings: serial dilutions, coated human CD22-His 100 ng/well, FIG. 1
Procedure: as §1, with “OD405” for “OD₄₀₅”

[3] = system: OCI-Ly7 cells; assay: Flow cytometry analysis using anti-CD22 scFv-Cκ-HA fusion protein; type: binding, human; settings: scFv-Cκ-HA fusion protein 0.25 μM; FIG. 2
Procedure: OCI-Ly7 cells were aliquoted into 1.5 ml tubes at a density of 3×10^5 cells per tube. The anti-CD22 scFv-Cκ-HA fusion protein (0.25 μM) was added to each tube, followed by incubation on ice for 30 minutes. After washing twice with MACS buffer (Miltenyi Biotec), the cells were incubated with Alexa Fluor 647-labeled mouse anti-HA antibody (Clone #912426, R&D Systems, MN, USA) on ice for 30 minutes. Then, the cells were washed twice with MACS buffer, resuspended in 150 μL of 1% paraformaldehyde in MACS buffer, and stored overnight at 4° C. The cells were analyzed by flow cytometry using a FACS Canto II instrument (BD Bioscience, San Jose, CA, USA). For each sample, 10,000 cells were analyzed.

[4] = molecular target: T1, human CD22-His protein (Sino Biological …); assay: ELISA, human CD22-His coated, anti-human IgG Fc-HRP detection
Procedure: Microtiter plates (Corning Inc., MA, USA) were coated overnight at 4° C. with human CD22-His protein (100 ng/well, Sino Biological Inc., Beijing, China). The wells were blocked for 1 hour at 37° C. with 150 μl of 3% BSA (w/v) in PBS, after which serial dilutions of the IgG protein prepared in 3% BSA in PBS were added to each well. After incubation for 1.5 hours at 37° C., the plates were washed three times with PBST (PBS containing 0.05% Tween-20), followed by incubation for 1 hour at 37° C. with an HRP-conjugated anti-human IgG (Fc-specific) antibody (Thermo Fisher Scientific, USA). The plates were washed three times with PBST, and the amount of bound antibody was determined by adding 2,2′-azino-bis(3-ethylbenzothiazoline-6-sulfonic acid) (Thermo Fisher Scientific Inc., MA, USA). The resulting OD₄₀₅ was measured using a microplate spectrophotometer.

| Molecule | binding result [4] | other results |
| --- | --- | --- |
| B1 | – | binding result [1]: binds |
| B2 | – | binding to CD22 (enzyme immunoassay, OD405) [2]: bind well; binding to OCI-Ly7 cells (flow cytometry) [3]: strong binding |
| B3 | binds | – |
| B4 | binds | – |
| B5 | binds | – |
| B6 | – | binding result [1]: binds |
| B7 | binds | – |
| B8 | binds | – |
| B9 | binds | – |
